Measurements taken from the supplement of paper PMC10567573.

B1: KLHL14 (parent)
chain: CAVLDDSIYLVGGYSWSMGAYKSS
B2: ZBED3 (parent)
chain: GPGFHAGTSALWRHLRSAHRRELE

Variants of: B1
Assay: protein stability index of a GFP-peptide fusion (GPS, HEK-293T) (PSI 1-6); higher = more stable
Conditions: c terminus: a fixed tail appended
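Further: lentivirally expressed fusions sorted by FACS into six bins by GFP to DsRed ratio, PSI derived from sequencing read proportions per bin multiplied by bin number.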

Variant | protein stability index
CAVLDDSIYLVGGYSWSMGRYKSS | 1.74
CAVLDDSIYLVGGYSWSMGDYKSS | 2.27
CAVLDDSIYLVGGYSWSMGQYKSS | 3.05
CAVLDDSIYLVGGYSWSMGVYKSS | 2.02
CAVLDDSIYLVGGYSWSMGFYKSS | 2.88
CAVLDDSIYLVGGYSWSMGNYKSS | 3.33
CAVLDDSIYLVGGYSWSMGHYKSS | 2.31
CAVLDDSIYLVGGYSWSMGPYKSS | 1.33
CAVLDDSIYLVGGYSWSMGKYKSS | 1.11
CAVLDDSIYLVGGYSWSMGCYKSS | 2.64
CAVLDDSIYLVGGYSWSMGYYKSS | 2.9
CAVLDDSIYLVGGYSWSMGWYKSS | 2.87
CAVLDDSIYLVGGYSWSMGTYKSS | 3.02
CAVLDDSIYLVGGYSWSMGAYKSA | 4.41
CAVLDDSIYLVGGYSWSMGAYKSC | 2.32
CAVLDDSIYLVGGYSWSMGAYKSK | 2.36
CAVLDDSIYLVGGYSWSMGAYKSE | 2.32
CAVLDDSIYLVGGYSWSMGAYKSN | 2.53
CAVLDDSIYLVGGYSWSMGAYKSI | 3.41
CAVLDDSIYLVGGYSWSMGAYKSG | 1.65
CAVLDDSIYLVGGYSWSMGAYKST | 3.12
CAVLDDSIYLVGGYSWSMGAYKSR | 1.75
CAVLDDSIYLVGGYSWSMGAYKSY | 3.04
CAVLDDSIYLVGGYSWSMGAYKSF | 2.96
CAVLDDSIYLVGGYSWSMGAYKSQ | 2.2
CAVLDDSIYLVGGYSWSMGAYKSD | 1.06

Variant | protein stability index
CAVLDDSIYLVGGYSWSMGAKKSS | 2.14
CAVLDDSIYLVGGYSWSMGAFKSS | 3.42
CAVLDDSIYLVGGYSWSMGAIKSS | 2.99
CAVLDDSIYLVGGYSWSMGAMKSS | 2.65
CAVLDDSIYLVGGYSWSMGAAKSS | 2.91
CAVLDDSIYLVGGYSWSMGAVKSS | 2.6
CAVLDDSIYLVGGYSWSMGADKSS | 2.43
CAVLDDSIYLVGGYSWSMGAEKSS | 1.45
CAVLDDSIYLVGGYSWSMGAGKSS | 1.08
CAVLDDSIYLVGGYSWSMGAQKSS | 2.35
CAVLDDSIYLVGGYSWSMGATKSS | 1.24
CAVLDDSIYLVGGYSWSMGALKSS | 2.68
CAVLDDSIYLVGGYSWSMGAHKSS | 2.64
CAVLDDSIYLVGGYSWSMGASKSS | 2
CAVLDDSIYLVGGYSWSMGANKSS | 2.25
CAVLDDSIYLVGGYSWSMGAPKSS | 2.44
CAVLDDSIYLVGGYSWSMGARKSS | 2.45
CAVLDDSIYLVGGYSWSMGAYKQS | 2.73
CAVLDDSIYLVGGYSWSMGAYKKS | 2.43
CAVLDDSIYLVGGYSWSMGAYKMS | 2.48
CAVLDDSIYLVGGYSWSMGAYKTS | 2.72
CAVLDDSIYLVGGYSWSMGAYKLS | 5.74
CAVLDDSIYLVGGYSWSMGAYKHS | 1.57
CAVLDDSIYLVGGYSWSMGAYKYS | 1.98
CAVLDDSIYLVGGYSWSMGAYKGS | 1
CAVLDDSIYLVGGYSWSMGAYKCS | 2.2

Variant | protein stability index
CAVLDDSIYLVGGYSWSMGAYKNS | 1.79
CAVLDDSIYLVGGYSWSMGAYKDS | 1.96
CAVLDDSIYLVGGYSWSMGAYKIS | 2.8
CAVLDDSIYLVGGYSWSMGAYKAS | 2.92
CAVLDDSIYLVGGYSWSMGAYKPS | 1.58
CAVLDDSIYLVGGYSWSMGAYGSS | 2.66
CAVLDDSIYLVGGYSWSMGAYNSS | 2.69
CAVLDDSIYLVGGYSWSMGAYCSS | 1.85
CAVLDDSIYLVGGYSWSMGAYVSS | 3.73
CAVLDDSIYLVGGYSWSMGAYQSS | 1.44
CAVLDDSIYLVGGYSWSMGAYLSS | 3.43
CAVLDDSIYLVGGYSWSMGAYHSS | 3.04
CAVLDDSIYLVGGYSWSMGAYRSS | 3.14
CAVLDDSIYLVGGYSWSMGAYDSS | 3.84
CAVLDDSIYLVGGYSWSMGAYTSS | 2.27
CAVLDDSIYLVGGYSWSMGAYASS | 3.59
CAVLDDSIYLVGGYSWSMGAYPSS | 1.79
CAVLDDSIYLVGGYSWSMGAYMSS | 4.12
CAVLDDSIYLVGGYSWSMGAYISS | 2.6
CAVLDDSIYLVGGYSWSMTAYKSS | 2.01
CAVLDDSIYLVGGYSWSMSAYKSS | 2.83
CAVLDDSIYLVGGYSWSMWAYKSS | 3.29
CAVLDDSIYLVGGYSWSMVAYKSS | 1.97
CAVLDDSIYLVGGYSWSMYAYKSS | 3.83

Variants of: B2
Assay: as above
Conditions: c terminus: a fixed tail appended

Variant | protein stability index
IPGFHAGTSALWRHLRSAHRRELE | 2.76
APGFHAGTSALWRHLRSAHRRELE | 2.7
PPGFHAGTSALWRHLRSAHRRELE | 3.04
HPGFHAGTSALWRHLRSAHRRELE | 3.15
WPGFHAGTSALWRHLRSAHRRELE | 2.7
YPGFHAGTSALWRHLRSAHRRELE | 2.1
NPGFHAGTSALWRHLRSAHRRELE | 3.45
SPGFHAGTSALWRHLRSAHRRELE | 1.79
CPGFHAGTSALWRHLRSAHRRELE | 2.65
QPGFHAGTSALWRHLRSAHRRELE | 3.51
KPGFHAGTSALWRHLRSAHRRELE | 3.07
FPGFHAGTSALWRHLRSAHRRELE | 1.96
TPGFHAGTSALWRHLRSAHRRELE | 3.33
VPGFHAGTSALWRHLRSAHRRELE | 2.9
EPGFHAGTSALWRHLRSAHRRELE | 3.11
RPGFHAGTSALWRHLRSAHRRELE | 3.02
DPGFHAGTSALWRHLRSAHRRELE | 3.87
MPGFHAGTSALWRHLRSAHRRELE | 3.18
LPGFHAGTSALWRHLRSAHRRELE | 2.52
GYGFHAGTSALWRHLRSAHRRELE | 2.54
GGGFHAGTSALWRHLRSAHRRELE | 3.2
GEGFHAGTSALWRHLRSAHRRELE | 3.53
GIGFHAGTSALWRHLRSAHRRELE | 2.8

Variant | protein stability index
GLGFHAGTSALWRHLRSAHRRELE | 2.5
GCGFHAGTSALWRHLRSAHRRELE | 1.37
GKGFHAGTSALWRHLRSAHRRELE | 3.06
GFGFHAGTSALWRHLRSAHRRELE | 1.89
GMGFHAGTSALWRHLRSAHRRELE | 2.53
GWGFHAGTSALWRHLRSAHRRELE | 2.18
GNGFHAGTSALWRHLRSAHRRELE | 3.5
GVGFHAGTSALWRHLRSAHRRELE | 2.77
GQGFHAGTSALWRHLRSAHRRELE | 4.32
GSGFHAGTSALWRHLRSAHRRELE | 2.92
GAGFHAGTSALWRHLRSAHRRELE | 3.48
GHGFHAGTSALWRHLRSAHRRELE | 3.39
GDGFHAGTSALWRHLRSAHRRELE | 3.38
GTGFHAGTSALWRHLRSAHRRELE | 3.01
GPGPHAGTSALWRHLRSAHRRELE | 3.59
GPGLHAGTSALWRHLRSAHRRELE | 3.3
GPGTHAGTSALWRHLRSAHRRELE | 3.75
GPGAHAGTSALWRHLRSAHRRELE | 3.15
GPGKHAGTSALWRHLRSAHRRELE | 3.62
GPGYHAGTSALWRHLRSAHRRELE | 3.37
GPGGHAGTSALWRHLRSAHRRELE | 3.01
GPGVHAGTSALWRHLRSAHRRELE | 3
GPGNHAGTSALWRHLRSAHRRELE | 2.84

Variant | protein stability index
GPGCHAGTSALWRHLRSAHRRELE | 3.19
GPGHHAGTSALWRHLRSAHRRELE | 3.16
GPGMHAGTSALWRHLRSAHRRELE | 2.68
GPGWHAGTSALWRHLRSAHRRELE | 2.22
GPGQHAGTSALWRHLRSAHRRELE | 4.02
GPGIHAGTSALWRHLRSAHRRELE | 2.99
GPGSHAGTSALWRHLRSAHRRELE | 3.39
GPGDHAGTSALWRHLRSAHRRELE | 3
GPGRHAGTSALWRHLRSAHRRELE | 4.36
GPGEHAGTSALWRHLRSAHRRELE | 2.83
GPGFHFGTSALWRHLRSAHRRELE | 1.83
GPGFHLGTSALWRHLRSAHRRELE | 2.24
GPGFHIGTSALWRHLRSAHRRELE | 2.06
GPGFHWGTSALWRHLRSAHRRELE | 1.82
GPGFHKGTSALWRHLRSAHRRELE | 2.3
GPGFHTGTSALWRHLRSAHRRELE | 2.33
GPGFHHGTSALWRHLRSAHRRELE | 2.12
GPGFHQGTSALWRHLRSAHRRELE | 2.59
GPGFHPGTSALWRHLRSAHRRELE | 2.77
GPGFHVGTSALWRHLRSAHRRELE | 1.85
GPGFHRGTSALWRHLRSAHRRELE | 3.08
GPGFHGGTSALWRHLRSAHRRELE | 2.54
GPGFHEGTSALWRHLRSAHRRELE | 3.04

Variant | protein stability index
GPGFHMGTSALWRHLRSAHRRELE | 2.58
GPGFHDGTSALWRHLRSAHRRELE | 3.52
GPGFHNGTSALWRHLRSAHRRELE | 2
GPGFHCGTSALWRHLRSAHRRELE | 1.65
GPGFHSGTSALWRHLRSAHRRELE | 2.14
GPGFSAGTSALWRHLRSAHRRELE | 2.95
GPGFKAGTSALWRHLRSAHRRELE | 2.67
GPGFRAGTSALWRHLRSAHRRELE | 3.02
GPGFTAGTSALWRHLRSAHRRELE | 3.16
GPGFPAGTSALWRHLRSAHRRELE | 4.37
GPGFNAGTSALWRHLRSAHRRELE | 3.06
GPGFDAGTSALWRHLRSAHRRELE | 3.69
GPGFCAGTSALWRHLRSAHRRELE | 3.46
GPGFWAGTSALWRHLRSAHRRELE | 2.76
GPGFQAGTSALWRHLRSAHRRELE | 3.44
GPGFAAGTSALWRHLRSAHRRELE | 3.33
GPGFGAGTSALWRHLRSAHRRELE | 2.62
GPGFYAGTSALWRHLRSAHRRELE | 2.89
GPGFMAGTSALWRHLRSAHRRELE | 2.82
GPGFEAGTSALWRHLRSAHRRELE | 3.63
GPGFFAGTSALWRHLRSAHRRELE | 2.88
GPGFIAGTSALWRHLRSAHRRELE | 2.15
GPGFVAGTSALWRHLRSAHRRELE | 2.75

Variant | protein stability index
GPGFLAGTSALWRHLRSAHRRELE | 2.24
GPEFHAGTSALWRHLRSAHRRELE | 3.67
GPMFHAGTSALWRHLRSAHRRELE | 3.16
GPKFHAGTSALWRHLRSAHRRELE | 3.26
GPIFHAGTSALWRHLRSAHRRELE | 2.5
GPDFHAGTSALWRHLRSAHRRELE | 3.13
GPPFHAGTSALWRHLRSAHRRELE | 3.38
GPVFHAGTSALWRHLRSAHRRELE | 3.1
GPHFHAGTSALWRHLRSAHRRELE | 3.25
GPQFHAGTSALWRHLRSAHRRELE | 2.45
GPRFHAGTSALWRHLRSAHRRELE | 3.96
GPYFHAGTSALWRHLRSAHRRELE | 3.36
GPLFHAGTSALWRHLRSAHRRELE | 3.26
GPNFHAGTSALWRHLRSAHRRELE | 3.56
GPWFHAGTSALWRHLRSAHRRELE | 1.96
GPCFHAGTSALWRHLRSAHRRELE | 3.23
GPSFHAGTSALWRHLRSAHRRELE | 2.9
GPFFHAGTSALWRHLRSAHRRELE | 1.74
GPAFHAGTSALWRHLRSAHRRELE | 3.22
GPTFHAGTSALWRHLRSAHRRELE | 3.75
